{"source": "patent US6835389B1", "about": "“Powder Composition for nasal administration” (Teijin Limited, priority 1998, dated 2004)", "origin": "cited, not measured here", "settings": "10 units of insulin to rabbits, nasal, Example 4 of Kokoku No. 62-42888", "data": [{"substance": "insulin", "values": [{"measurement": "absorption rate calculated from the AUC", "value": "≤ 10", "unit": "%"}, {"measurement": "maximum blood concentration", "value": "≤ 200", "unit": "μU/ml"}, {"measurement": "maximum blood concentration relative to that of the injection administration", "value": "about 20%"}]}]}
